T1: human histidine-rich glycoprotein (HRG), purified from human plasma (human, UniProt P04196 19-525)
T1 construct: also called human purified HRG; human purified HRG protein
T1 sequence: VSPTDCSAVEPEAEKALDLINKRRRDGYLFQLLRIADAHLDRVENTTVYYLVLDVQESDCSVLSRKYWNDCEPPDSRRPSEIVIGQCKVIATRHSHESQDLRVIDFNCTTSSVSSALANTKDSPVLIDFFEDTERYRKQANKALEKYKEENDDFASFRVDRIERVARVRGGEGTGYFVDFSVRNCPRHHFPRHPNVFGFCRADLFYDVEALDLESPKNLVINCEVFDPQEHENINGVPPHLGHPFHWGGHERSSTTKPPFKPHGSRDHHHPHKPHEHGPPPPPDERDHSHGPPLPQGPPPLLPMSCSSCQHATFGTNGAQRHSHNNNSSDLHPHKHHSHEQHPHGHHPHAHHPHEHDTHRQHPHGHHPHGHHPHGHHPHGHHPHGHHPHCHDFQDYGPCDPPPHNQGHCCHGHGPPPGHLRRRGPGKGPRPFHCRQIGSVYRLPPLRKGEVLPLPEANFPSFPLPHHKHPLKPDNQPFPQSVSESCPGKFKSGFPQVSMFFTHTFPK


Key:
[1] = target: T1, human histidine-rich glycoprotein …; assay: sandwich ELISA, HRG captured by solid phase 65-3A
Procedure: (§1) The capture antibody solution was dispensed at 25 μL per well into 384-well Maxisorp plates (NUNC), and the plates were incubated at room temperature for 3 hours. The plates were washed twice with 120 μL of washing solution per well (0.05% Tween 20-containing PBS). A blocking solution (1% BSA-containing PBS) was dispensed at 30 μL per well, and the plates were incubated at room temperature for 3 hours. The blocking solution was removed followed by dispensing the standard substance for evaluation at 20 μL per well (n=2), and the plates were incubated at room temperature for 3 hours. After washing the plates four times with the washing solution as described above, the solution of each detector antibody was dispensed at 10 μL per well, followed by dispensing a horseradish peroxidase-streptavidin solution (0.05 μg/mL) at 10 μL per well, and the plates were incubated at room temperature for 1 hour. After washing the plates four times with the washing solution as described above, a chromogenic substrate solution (TMB (3,3′,5,5′-tetramethylbenzidine)) was dispensed at 20 μL per well followed by incubating the plates at room temperature for 10 minutes, then a reaction stop solution 0.5 M H₂SO₄ was added at 20 μL/well, and the absorbance at 450 nm was measured.
(§2) The results regarding the evaluation of combinations chosen from 21 types of anti-HRG monoclonal antibodies are shown in Table 1. In Table 1, the absorbance at a wavelength of 450 nm of each combination was determined as follows: less than 1.0 OD: −, 1.0 OD or more and less than 2.0 OD: +, 2.0 OD or more and less than 3.0 OD: ++, and 3.0 OD or more: +++. The combinations of antibodies which could construct a sandwich ELISA system having enough level of absorbance change were 86 sets evaluated as ++ or +++ in Table 1.

[2] = target: T1, human histidine-rich glycoprotein …; assay: sandwich ELISA, HRG captured by solid phase 67-8A-5F
Procedure: as §1, §2

[3] = target: T1, human histidine-rich glycoprotein …; assay: sandwich ELISA, HRG captured by solid phase 3-4E
Procedure: as §1, §2

[4] = target: T1, human histidine-rich glycoprotein …; assay: sandwich ELISA, HRG captured by solid phase 32-4C
Procedure: as §1, §2

[5] = target: T1, human histidine-rich glycoprotein …; assay: sandwich ELISA, HRG captured by solid phase 19-1C
Procedure: as §1, §2

[6] = target: T1, human histidine-rich glycoprotein …; assay: sandwich ELISA, HRG captured by solid phase 50-6C-2A
Procedure: as §1, §2

[7] = target: T1, human histidine-rich glycoprotein …; assay: sandwich ELISA, HRG captured by solid phase 81-2C
Procedure: as §1, §2

[8] = target: T1, human histidine-rich glycoprotein …; assay: sandwich ELISA, HRG captured by solid phase 6-12A-10B-9G
Procedure: as §1, §2

[9] = target: T1, human histidine-rich glycoprotein …; assay: sandwich ELISA, HRG captured by solid phase 88-2E
Procedure: as §1, §2

[10] = target: T1, human histidine-rich glycoprotein …; assay: sandwich ELISA, HRG captured by solid phase 35-3G-10C
Procedure: as §1, §2

[11] = target: T1, human histidine-rich glycoprotein …; assay: sandwich ELISA, HRG captured by solid phase 94-7A-3C-3D
Procedure: as §1, §2

[12] = target: T1, human histidine-rich glycoprotein …; assay: sandwich ELISA, HRG captured by solid phase 31-1H
Procedure: as §1, §2

[13] = target: T1, human histidine-rich glycoprotein …; assay: sandwich ELISA, HRG captured by solid phase 69-1A
Procedure: as §1, §2

[14] = target: T1, human histidine-rich glycoprotein …; assay: sandwich ELISA, HRG captured by solid phase 13-2G
Procedure: as §1, §2

[15] = target: T1, human histidine-rich glycoprotein …; assay: sandwich ELISA, HRG captured by solid phase 42-10D
Procedure: as §1, §2

[16] = target: T1, human histidine-rich glycoprotein …; assay: sandwich ELISA, HRG captured by solid phase 58-5C
Procedure: as §1, §2

[17] = target: T1, human histidine-rich glycoprotein …; assay: sandwich ELISA, HRG captured by solid phase 9-1F
Procedure: as §1, §2

[18] = target: T1, human histidine-rich glycoprotein …; assay: sandwich ELISA, HRG captured by solid phase 93-4C
Procedure: as §1, §2

[19] = target: T1, human histidine-rich glycoprotein …; assay: sandwich ELISA, HRG captured by solid phase 75-2D
Procedure: as §1, §2

[20] = target: T1, human histidine-rich glycoprotein …; assay: sandwich ELISA, HRG captured by solid phase 14-6F
Procedure: as §1, §2

[21] = target: T1, human histidine-rich glycoprotein …; assay: sandwich ELISA, HRG captured by solid phase 40-10G
Procedure: as §1, §2

| Binder | absorbance at 450 nm [4] [OD] | absorbance at 450 nm [5] [OD] | absorbance at 450 nm [7] [OD] | absorbance at 450 nm [9] [OD] | absorbance at 450 nm [10] [OD] | absorbance at 450 nm [12] [OD] | absorbance at 450 nm [13] [OD] | absorbance at 450 nm (OD450) [1] [od] | absorbance at 450 nm [2] [OD] | absorbance at 450 nm [15] [OD] | absorbance at 450 nm (OD450) [16] [od] | absorbance at 450 nm (OD450) [3] [od] | absorbance at 450 nm [6] [OD] | absorbance at 450 nm [8] [OD] | absorbance at 450 nm [17] [OD] | absorbance at 450 nm (OD450) [18] [od] | absorbance at 450 nm (OD450) [19] [od] | absorbance at 450 nm (OD450) [11] [od] | absorbance at 450 nm (OD450) [20] [od] | absorbance at 450 nm (OD450) [21] [od] | other results |
| --- | --- | --- | --- | --- | --- | --- | --- | --- | --- | --- | --- | --- | --- | --- | --- | --- | --- | --- | --- | --- | --- |
| anti-HRG monoclonal antibody 3-4E (antibody, V domains shown, Mouse (BALB/c) hybridoma monoclonal, Protein A purified; biotin-labeled when used as detection antibody) VH: QVQLQQSGAELMKPGASVKISCKATGYTFSTFWMEWVKQRPGHGLEWIGEILPGSGNANYNEKFKGKATFTADTSSNTAYMQLSSLTSEDSAVYYCAIHYYGYGFAYWGQGTLVTVSA VL: DNVLTQSPAIMSASLGERVTMTCTASSSVSSSYLHWYQQKPGSSPKLWIYTTSNLASGVPVRFSGSGSGTSYSLTISSMEAEDAATYYCHQYHRSPWTFGGGTKLEIK | < 1 | < 1 | < 1 | < 1 | < 1 | < 1 | < 1 |  |  |  |  |  |  |  |  |  |  |  |  |  | absorbance at 450 nm [1]: < 1 OD; absorbance at 450 nm (OD450) [2]: 2 to 3 od; absorbance at 450 nm [3]: < 1 OD; absorbance at 450 nm (OD450) [6]: ≥ 3 od; absorbance at 450 nm (OD450) [8]: ≥ 3 od; absorbance at 450 nm [11]: < 1 OD; absorbance at 450 nm (OD450) [14]: ≥ 3 od |
| anti-HRG monoclonal antibody 50-6C-2A (antibody, V domains shown, Mouse hybridoma monoclonal) VH: EVQLQESGPGLVKPSQSLSLTCTVTGYSITSDYAWNWIRQFPGNKLEWMGYISYSGSTNYNPSLKSRISITRDTSKNQFFLQLNSVTTEDTATYYCASASYRYAWFAYWGQGTLVTVST VL: DIQMTQTTSSLSASLGDRVTISCRASQDISNYLNWYQQKPDGTVKLLIYYTSRLHSGVPSRFSGSGSGTDYSLTISNLEQEDIGTYFCQQGNTLPTFGGGTKLEIK | < 1 | < 1 | < 1 | < 1 | < 1 | < 1 | < 1 | 1 to 2 | < 1 | < 1 | 1 to 2 | ≥ 3 | < 1 | < 1 | < 1 | 2 to 3 | ≥ 3 | 1 to 2 | 2 to 3 | 1 to 2 | absorbance at 450 nm [14]: < 1 OD |
| anti-HRG monoclonal antibody 67-8A-5F (antibody, V domains shown, Mouse hybridoma monoclonal) VH: EVQLQESGPGLVKPSQSLSLTCTVTGYSITSDYAWNWIRQFPGNKLEWMGYISYSGSTSYNPSLKSRISITRDTSKNQFFLQLNSVTTEDTATYYCASASYRYAWFAYWGQGTLVTVSA VL: DIQMTQTTSSLSASLGDRVTISCRASQDISNYLNWYQQKPDGTVKLLIYYTSRLLSGVPSRFSGSGSGTDYSLTISNLEQEDIATYFCQQGNTLPTFGGGTKLEIK | < 1 | < 1 | < 1 | < 1 | < 1 | < 1 | < 1 | 1 to 2 | < 1 | < 1 | 2 to 3 | ≥ 3 | < 1 | < 1 | < 1 | 2 to 3 | ≥ 3 | 1 to 2 | 2 to 3 | 1 to 2 | absorbance at 450 nm [14]: < 1 OD |
| anti-HRG monoclonal antibody 6-12A-10B-9G (antibody, V domains shown, Mouse hybridoma monoclonal; biotin-labeled as detection antibody and for bead immobilisation) VH: EVQLQESGPGLVKPSQSLSLTCTVTGYSITSDYAWNWIRQFPGNKLEWMGYISYSGSTNYNPSLRSRISITRDTSKNQFFLQLISVTTEDTATYYCGSASYRYAWFAYWGQGTLVTVSA VL: DIQVTQTTSSLSASLGDRVTISCRASQDISNYLNWYQQKPDGTVKLLIYYTSRLHSGVPSRFSGSGSGTDYSLTISNLEQEDIATYFCQQGNTLPTFGGGTKLEIK | < 1 | < 1 | < 1 |  | < 1 | < 1 | < 1 | 2 to 3 | < 1 | < 1 | 2 to 3 | ≥ 3 | < 1 | < 1 | < 1 | ≥ 3 | ≥ 3 | 1 to 2 | ≥ 3 | 2 to 3 | absorbance at 450 nm [14]: < 1 OD |
| anti-HRG monoclonal antibody 65-3A (antibody, V domains shown, Mouse hybridoma monoclonal) VH: QVILKESGPGILQPSQTLSLTCSFSGFSLSTSGVGVSWIRQPSGKGLEWLAHIYWDDDKHYNPSLKSRLTISKDTSRNQVFLRITSVDTADTATYYCALGTVGGPWFPYWGQGTLVTVSA VL: DVQMNQSHKFMSTSVGDRVSITCKASQDVSTAVAWYQQKPGQSPKILIYWASIRHTGVPDRFTGSGSGTDYTLTISSVQAEDLTLYYCQQHYSTPWTFGGGTKLEIK | < 1 | < 1 | < 1 |  | < 1 | < 1 | < 1 |  |  | < 1 | 2 to 3 |  |  |  | < 1 | 2 to 3 | 2 to 3 |  | 1 to 2 | 2 to 3 | absorbance at 450 nm [1]: < 1 OD; absorbance at 450 nm (OD450) [2]: 2 to 3 od; absorbance at 450 nm [3]: < 1 OD; absorbance at 450 nm (OD450) [6]: 2 to 3 od; absorbance at 450 nm (OD450) [8]: ≥ 3 od; absorbance at 450 nm [11]: < 1 OD; absorbance at 450 nm (OD450) [14]: 2 to 3 od |
